# Reference: PMC12117405
# Biological target: Lsm2/Lsm3;Lsm6/Lsm5/Lsm7;Lsm4-link-Lsm8 (human;human;human, UniProt Q9Y333;P62310;P62312;Q9Y4Y9;Q9UK45;Q9Y4Z0;O95777 …, ||)
# Test: gel filtration co-elution
binder,measurement,value
GGCAAUUUUUGACAGUCUCUACGGAGACUG (structured_RNA) [U4-5'Δ],binding result,no binding
